US20030027252A1 (TULARIK, published 2003)
Where no end group is shown, it is not given here.

B1: [^125I]-MCH (peptide, UniProt P20382 147-165, looked up)
peptide: DFDMLRCMLGRVYRPCWQV
modifications: ends and bridges not checked; also: 125I label, labelled residue not given here
notes: mature
B2: melanin-concentrating hormone (MCH) (peptide, UniProt P20382 147-165, looked up)
peptide: DFDMLRCMLGRVYRPCWQV
modifications: ends and bridges not checked; cysteine pairing not given here

Assays:
[1] = target: T1, Human TGR342 (human, UniProt Q969V1 1-340); experiment: [125I]-MCH binding to membranes of HEK293 cells transiently transfected with pEF6/V5-TGR342; specific binding = total minus mock-transfected membranes
T1 construct: Full-length cDNA in pEF6-V5 (Invitrogen), transiently expressed in HEK293 or CHO cells; also called MCHR2; MCHR-2
T1 sequence (Q969V1 whole entry): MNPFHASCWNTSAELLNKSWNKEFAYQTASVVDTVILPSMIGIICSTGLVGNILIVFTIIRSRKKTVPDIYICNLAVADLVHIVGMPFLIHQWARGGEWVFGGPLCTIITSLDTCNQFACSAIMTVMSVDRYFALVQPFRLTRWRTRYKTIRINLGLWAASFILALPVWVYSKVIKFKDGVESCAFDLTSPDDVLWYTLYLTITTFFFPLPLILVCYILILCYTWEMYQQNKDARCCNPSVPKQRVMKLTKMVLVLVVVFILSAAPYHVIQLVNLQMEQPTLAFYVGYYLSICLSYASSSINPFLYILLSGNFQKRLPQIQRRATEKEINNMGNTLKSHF

[2] = target: T1, Human TGR342; experiment: cell-based or functional assay

| Binder | Kd [1] [nM] | EC50, aequorin luminescence assay (intracellular calcium mobilization), transfected HEK293 cells [2] [nM] |
| --- | --- | --- |
| B1 | 9.6 | – |
| B2 | – | 2 |
